22 sequences from the DeepSol protein solubility set can be followed below.

This data set is described as follows: soluble on expression in E. coli; label from the status in PepcDB or PDB records.
With “MSLSATNTNLHDLLARRIPGHALEQPFYTSPEIYQQDLEHIFYREWLYAIPACQLVKPGSYATLRIGAYNIVIVKGRDGEIRAFHNSCRHRSSIVCKAREGQVAKLVCPYHQWTYDLDGKLIWANSMGPDFDPTQHGLRSVALRNLKGLIYICLADTPPDFEAFARAAEPYLGVHDLQDAKVAYSSSIIEKGNWKLVWENNRECYHCSGNHPALCRSFPLDPEVAGVSADGSISQRIQDHFDACAAAGAPAQFLLGGDGQFRLARMPLQETAVSYTMDGKAAVARQLGRVAKPDAGSLLVFHYPSTWNHFLPDHSLTFRVTPISPTETEVTTTWLVHKDAVEGVDYDLQHLTEVWIATNDEDREIVETNQEGIFSPAYIPGPYSPDWESGVIQFIDWYAAWMERSLAPSRMAAEEGHHHHHH”, the “soluble on expression in E. coli” value is “soluble”.
Next, “MSLKRFYSLFALPLITAATWANEPLPDRQTELPAVKKENHGEYLQPRDLSKIPNTAFGDQVKRGYSLFVNSQQMRGKYVGNEQNCVNCHMEAGRKANAAPLWAAYMAYPAYRKKNDRVNSYADRIQGCFEYSMNGKAPAYDSPEIVALSAYAYWLAMGGLLDSYGMNDEAVPELDIKALQVGGKAQDFPLPDAIAQALPVKERGNLAGRGYPKIAAPKQEPSPERGALVYEKNCETCHRADGSGIKGTDGHSYIPPLWGEFAYNWGAGMHRINTAAYFIYENMPLGKSVQLTEQEAWDVAAYINSHERPQDPRFKGNVTANAEKYHQHQGYYGKTLNGKQIGKNAFASGTEGHHHHHH”: “not soluble”; “MDDERKRKKYTLYLHPEKAADFQTLEAIESVPRSERGELFRNAFISGMALHQLDPRLPVLLTAILSEEFSADQVVTLLSQTTGWKPSQADIRAVLTELGASQSVEKMPPSATDSVQEAMNDVRLKMKKLF”: “soluble”; “MITLYGFGTGFGLPEISPFVTKTEVQLKMAGLPYRKERAMPPASPKGQLPFIDDGGEAVADSTFIRAHIERRYGFDFDAGLSLQERAQAWAFERMIEHHVYWALVGARWVDPINFAKGPSHFFDGAPEHNREKLREDAQFRVAENYLLSGLGRHAPDDDVDLAVRSLFALSVQLGDKAYLMGNKPCGVDATAFGALAGILTPFFESGLRQRAEGFPNLTAYVDRMMDNYYPEFAWTPLRQAALEHHHHHH”: “not soluble”.
Then “MSLVLMIVSGRSGSGKSVALRALEDMGFYCVDNLPVVLLPDLARSLADRNISAAVSIDVRNMPESPEIFEQAMQNLPECFSPQLLFLDADRNTLIRRYSDTRRLHPLSSKNLSLESAIDEESDLLEPLRSRADLIVDTSEMSVHELAEMLRTRLLGKRERELTMVFESFGFKHGIPIDADYVFDVRFLPNPHWDPKLRPMTGLDKPVAAFLDRHTEVHNFIYQTRSYLELWLPMLETNNRSYLTVAIGCTGGKHRSVYIAEQLADYFRSRGKNVQSRHRTLEKRKSEGGSHHHHHH”, with “soluble”; and “MKCKVYTVVVPNVQSATLLPIIREKVKPDSIVYTDTFRSYDVLDVSEFSHFRINHSTHFAENHNYINGIGNFWNHAKRHLQKFNGIPKEHFELYLKECEWRFNNSEIKSQISILKQLVKGSLVLEHHHHHH”, with “not soluble”.
Regarding “MPGSTGKTRTAEAGETARRDQDSNSYVYGVVPADVELDPEARGVGDPPGRISLVRHGEIAALVSDIVLDRPLGRPDDLLAHQRLLDATAAEVPVLPFRFGAVVSDSEAVVEELLGPNHDDFLAALKELEGRAEYVVKGRYVERVVIGEVLAEDPEATRLREEIRGRPEEATWDARIQLGQMIGEAVAAKRDADTAALVDALAPKCAGVVVREPTHEQDAVHVAVLVDTDRQAEFEKILDEFGERWAGRIDLRLLGPLAPYDFVMAPGQGG”, the “soluble on expression in E. coli” value is recorded as “soluble”.
Then “RMEMVEIGGIQQALYIRGQNADNPIILWVHGGPGNSMMPFLHLYQYEWENDFTVVNWDQRNVGKTYFANDPAAVLQTMSAERVLQDVHEVTAYLKQEFNKEKIILIGHSWGTVLGTMAVQTYPEDYSAYIGIAQTVNMVDNERVGYEKTLEMVKAAGKQKDIKALEAIAPYPPAKYGPSYLAALMTVRTYQSKYGLSINMDLGNIISILATPYYSLRELKNTAIFNPNAIDNQGDVLRFLVEEADIRNYGVDYQVPVYYIMGENDYNSPYLPAKKFFDEIVAPDKQIFFIPDADHLPFLSKKAEFDCVLLE”, with “not soluble”; and “MIAAYENSKWEPVKWENDMHCAVKIQDKNQWRRGQIIRMVTDTLVEVLLYDVGVELVVNVDCLRKLEENLKTMGRLSL”, with “soluble”; and “MEMRQPAVAGQFYPLRCENLENELKRCFEGLEIREQEVLGAVCPHAGYMYSGKVAAHVYATLPEADTYVIFGPNHTGYGSPVSVSRETWKTPLGNIDVDLELADGFLGSIVDADELGHKYEHSIEVQLPFLQYRFERDFKILPICMGMQDEETAVEVGNLLADLISESGKRAVIIASSDFTHYETAERAKEIDSEVIDSILNFDISGMYDRLYRRNASVCGYGPITAMLTASKKLGGSRATLLKYANSGDVSGDKDAVVGYAAIIVELEHHHHHH”, with “soluble”.
With “MHLSRCRKCGRVMKGERIDPYRVKLTCSCGFSDFRTMTEKVKTVNPFFQKGGFSPLLESERGKMVLTMQRANREHLEIISLEEISMLVSSDFDLPEVLQHVTAKVATQLKVSVCNIYLREGDEVVLAATHGFDPAFIGKIRIKIGDGITGSVARDGQYISLSRASQDPRYRYFPELQEEKYNSMLSFPIGDKKEVYGVINLNTTSIRSFHEDEIYFVSIIANLILTAIKLRQQVASSRKAAEASA”, the “soluble on expression in E. coli” value is given as “not soluble”.
Then “GSMKPMGPNDYMVIGLARIDDRLIHGQVATRWTKETNVSRIIVVSDEVAADTVRKTLLTQVAPPGVTAHVVDVAKMIRVYNNPKYAGERVMLLFTNPTDVERLVEGGVKITSVNVGGMAFRQGKTQVNNAVSVDEKDIEAFKKLNARGIELEVRKVSTDPKLKMMDLISKIDK”, with “soluble”.
For “MILINVKYQVRPEYVDTFLDEVKWFTDACRAEEGNLFFDWFKNPEKDNEFILVEGFKDGSDVAHVQSEAFQRACEEIPRYLLETPKIINVSIPGKTEWDTMAEFVVE”, the “soluble on expression in E. coli” value was “not soluble”.
As for “MGSDKIHHHHHHMNYTFELKELQATHIVYLHHQGDISLIPSSIRKLMQWAGPKGLINGPANKLISVYQHEGKVLSVDIGLTVPQEVEGESEISKGLLSGGLYAIGHFEIGTDEIPAAWSLMYTLTSKHQCKPCAGKSFEIYQSIPLDQHPQDKCMIDLCIPVQMIDLKLIEEKAISILTECDTAMLASVTEEGYPRPVPMGKIKADGISQIWFSTGTFSDKTIQFQLNPKAGVCFMKGGDSIVLTGKVEIVSDMEIKKALWSDWMFAHFPGGVIDPSYCILKFTSEEATYWIDNEFVKASI”, the “soluble on expression in E. coli” value is given as “not soluble”.
Regarding “MAHHHHHHMGLVSSKHAGGGDGKPLSLDVISSRPKLEPHEVSLLQLTPHGVYATLAAHVYCAAAPETAMQVPLPDGWEVLLQCSSLHLDKEGYFAVAYVHRGSRHCIISERGTSEVLGLRAGIWMYFEQPTIQFFLAEQFSKAVRHKLKVMDKVCSGSWFVSYTGHSLGAVIAGCRAVMEGTLAVTFESPGARVFIEKTLDASSGTDEHLITYLRAPNPINTLKPQCGYVIMIPTQQVVLPSGTLFLAPSNPAAAEDDDEDERQSPRSGSGNRASRKPSKVPLSSTSSTNPSGCAGLVAASVTTAASTGTTAAATLAARSPTPPSVPASNSNNSGPGAAVASAPARWRIPSFRPQEYLRGYLFGGVGMGVPELQQYVGKVEPMIREMLEHTQQVHSIHSLRSHFQKSDEPGDEEVVLRWPSHLLQFMEFYNTTRALEDPENQDAGVKEAYLGLMRRLYYTEPRRRDCIPTKYLDPRSLLLVRMWWSMDAAQRKQWPLSLMDHKALNVIQIKDRYLCSYVMTAMQAKQYLMRLVARPEMRAMIDQWRRERNDGSTGAGSPQRSKL”, the “soluble on expression in E. coli” value is “not soluble”.
Next, “KILLKTSENGLDLEKPYYQAVIRRWQNKITDADTRRETVSAVSPKIILNDAPKWAVMLETEWQDGEWFEGRLAQEWLDKGVATNREQVAALETELKQKPAQLLIGVRAQTVPDRGVLRQIVRLSEAAQGGAVVQLLAEQGLSDDLSEKLEHWRNALAECGAAWLEPDRAAQEGRLKDQ”: “not soluble”; “MRKMKKMDADTLTAILAFQRLSGTGKSLLEGAAKDAEAGRYSIIAINPVHEIKVYQHDYYIDGTHQVVADPLKEIELFIEKAREDELELPLDSGAIGYVGYDVIALYEDLGEIPVETRDIPDIRFYVYESFVIMDHQAEELILVQDNCYSGRSEADLDKALESMLTELTTPKKDEHKAVHVPKMSYKSNYTKDEYMGLVKKAKTYIQEGDFFQIVLSQRLEADFTVKPFDYYRKLRLLNPSPYLYFIDFGDTVLIGSSPESLIKTKGRTVITNPIAGTRRRGATKQEDELLASELLSDEKELAEHRMLVDLGRNDIGKIAETGSVHVPVYLTIERYRFLMHLVSVVEGTLKTGLTAIDALRSTLPAGTVSGAPKIRAMERIYEWENVKRGPYAGAVGYLTKNGDSDFALSIRTMVLHNGKAYVQAGAGIVYDSDPESEYLETLQKAKALLEVGE”: “not soluble”.
In the case of “MGSDKIHHHHHHMKTIQPIDWLQPKTEAEEIRFRSTGFRWGNKGTHTSRTIMLDELRALLNYSRPDATRDDYVSVIIEDNCLGKRTASTRKLSLQRLSELYALDPKVLLFQLMRYFWYADRSGQAILPLLLALARDPLLRATAASVLCMHPGEEFARQPMTDALNQAAGGRFNEGTLNKIVRNAASSWTQTGHLKGRSHKVRQSIAPTAITTAYALLLGYLTGTRGAKLFETPWAQALDTPPSTLMHLAMDARRLGFLDMSQSGGIVELGFSRLLPLDERR”, the “soluble on expression in E. coli” value is on record as “not soluble”.
Then “SWYIEEDLEKVNSNYFEEKDYELCRNELETTILDSVMKRVKGLEKVGIIYSGGVDSTLISKLASEYCEVILYSVGSENSEDLIYAERAAKDMGLDFRKKIISEDEFEEYVVKVAKAIDELDVMKLSVGIPILAASEMAKEDGIKVLLSGQGADELFAGYNRYQRILNEKGEDGLKESIISDVFDIHKINLERDDHCTMANGVELRVPFLDKFVIDVGLSIPVEYKIEEPRKKILRDIASKYVPDYIAQRPKKAAQYGSGSEKM”, with “not soluble”; and “MGLIVDDDNDGEVLIPPPNFSMVEDEIYRSGFPELENFGFLSTLNLRSIIYLCPEPYPEDNLKSLASNNIKLFQFGIEGKTDPPTPMPKDTVLSALRVLVDVRNHPILIHCKRGKHRTGCLVGCLRKVQNWCLSSVLEEYQKCAGLKWRQRDLRFIEDFDVLRLKQCLYSIIYQYNGYGLKRRKLLYQEENVVQEQQKPQATKG”, with “soluble”.
Then “GPGSEHLTTVAAPFTCPIRRTVFAEGRRTIIFFRNIDATTAVFHQLRSAGFAVSLLHASLPYKVRKEMYADFASGRTNILCATDVAARGLDLHVDMVINFDVPTNALAYLSRSGRTARMGREGQVLNLYNKHQGVIVSAIKAFLKDNLPMEGLTNRKADMMQPRYAEWRTHKINALARSYVSLITR”, with “not soluble”; and “MPVAATNSETAMQQVLDNLGSLPSATGAAELDLIFLRGIMESPIVRSLAKAHERLEETKLEAVRDNNLELVQEILRDLAQLAEQSSTAAELAHILQEPHFQSLLETHDSVASKTYETPPPSPGLDPTFSNQPVPPDAVRMVGIRKTAGEHLGVTFRVEGGELVIARILHGGMVAQQGLLHVGDIIKEVNGQPVGSDPRALQELLRNASGSVILKILPSYQEPHLPRQVFVKCHFDYDPARDSLIPCKEAGLRFNAGDLLQIVNQDDANWWQACHVEGGSAGLIPSQLLEEKRKAFVKRDLELTPNSGTLCGSLSGKKKKRMMYLTTKNAEFDRHELLIYEEVARMPPFRRKTLVLIGAQGVGRRSLKNKLIMWDPDRYGTTVPYTSRRPKDSEREGQGYSFVSRGEMEADVRAGRYLEHGEYEGNLYGTRIDSIRGVVAAGKVCVLDVNPQAVKVLRTAEFVPYVVFIEAPDFETLRAMNRAALESGISTKQLTEADLRRTVEESSRIQRGYGHYFDLCLVNSNLERTFRELQTAMEKLRTEPQWVPVSWVY”, with “soluble”.
